Measurements as given in article PMC13082335, “Matrix plasticity and the molecular basis of extracellular filament assembly in Bacillus cereus” (Science Advances, 2026).

What was measured:
[1] = target: CapP-His (full-length CapP, BC1280, with C-terminal polyhistidine tag) (Bacillus cereus ATCC14579) (UniProt Q81GC7); assay: native gel or EMSA; native PAGE (Any kD Mini-PROTEAN TGX), 25 mM tris, 192 mM glycine, 200 V, NativeMark marker, Coomassie; second SEC peak
[2] = target: the molecule itself; assay: as above

## CapP-His (full-length CapP, BC1280, with C-terminal polyhistidine tag) (from UniProt Q81GC7 1-279) (natural protein)
[1]
  stoichiometry N: 15

B1: N-domain(39-190)-His of CapP (domain or fragment)
chain: AAFIHETKVEATLSTAIIFPKTVNTLKEQSEKHKQFIEREYGTMKGKLKATSIEEIKQAISVWQQGREKIVAEKEALQNVYTEIEAPYNQIQEELKVNKDESMQQVSIYVNEGFRSIKEKRDYIEKEISLKAIDEQIQALQQQLNVAIEAEG
notes: CapP (BC1280) of Bacillus cereus ATCC14579, residues A39 to G190 (N-terminal domain); also called N-terminal domain; N-terminal construct; source: E. coli Lemo21 (DE3) pLysS, pET24b, purified under native conditions (HisTrap, Superdex 75 SEC); not shown: His6, C-terminal, kept
[2]
  stoichiometry N: ~15
